We go through two molecules from patent US20260275312, “CRISPR NUCLEASE POLYPEPTIDES AND GENE EDITING SYSTEMS COMPRISING SUCH” (ARBOR BIOTECHNOLOGIES, INC., published 2026).

One series addresses T1, Nuclease S (synthetic construct).
T1 chain: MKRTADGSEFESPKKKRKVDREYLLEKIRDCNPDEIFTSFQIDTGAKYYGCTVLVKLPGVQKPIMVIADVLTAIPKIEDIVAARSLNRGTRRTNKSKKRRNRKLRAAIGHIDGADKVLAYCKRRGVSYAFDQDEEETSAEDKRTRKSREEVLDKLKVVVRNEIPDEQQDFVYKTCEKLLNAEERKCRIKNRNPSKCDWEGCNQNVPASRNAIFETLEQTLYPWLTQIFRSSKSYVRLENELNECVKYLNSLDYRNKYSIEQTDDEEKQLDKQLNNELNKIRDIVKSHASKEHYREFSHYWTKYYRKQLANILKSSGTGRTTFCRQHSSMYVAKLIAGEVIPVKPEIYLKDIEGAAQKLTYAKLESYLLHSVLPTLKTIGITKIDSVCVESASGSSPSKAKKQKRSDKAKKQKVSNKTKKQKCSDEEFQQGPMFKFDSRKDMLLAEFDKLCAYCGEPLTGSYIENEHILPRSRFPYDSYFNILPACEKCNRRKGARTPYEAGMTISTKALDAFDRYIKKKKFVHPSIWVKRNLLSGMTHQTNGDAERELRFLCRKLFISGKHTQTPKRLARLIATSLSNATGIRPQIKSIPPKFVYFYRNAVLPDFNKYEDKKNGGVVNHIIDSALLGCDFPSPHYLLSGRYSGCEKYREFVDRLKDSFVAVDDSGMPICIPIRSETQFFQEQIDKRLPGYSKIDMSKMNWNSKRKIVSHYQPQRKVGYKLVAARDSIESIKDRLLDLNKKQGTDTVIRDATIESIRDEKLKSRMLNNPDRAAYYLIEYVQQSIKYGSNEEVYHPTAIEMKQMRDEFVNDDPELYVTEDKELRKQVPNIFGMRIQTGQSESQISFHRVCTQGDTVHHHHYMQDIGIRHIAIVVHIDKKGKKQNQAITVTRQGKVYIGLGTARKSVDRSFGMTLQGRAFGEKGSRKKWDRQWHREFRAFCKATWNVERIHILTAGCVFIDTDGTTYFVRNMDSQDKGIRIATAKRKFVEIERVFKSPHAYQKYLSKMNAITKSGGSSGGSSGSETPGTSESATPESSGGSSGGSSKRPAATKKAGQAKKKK
Nature of the series: cell_activity; HEK293T; PAM AACC 3'; very low. Conditions: tags: N-term SV40 NLS, XTEN linker + C-term nucleoplasmin NLS.

The target in series [1] is T2, Nuclease W S925R/E715R/A65R (synthetic construct, S925R,E715R,A65R).
T2 chain: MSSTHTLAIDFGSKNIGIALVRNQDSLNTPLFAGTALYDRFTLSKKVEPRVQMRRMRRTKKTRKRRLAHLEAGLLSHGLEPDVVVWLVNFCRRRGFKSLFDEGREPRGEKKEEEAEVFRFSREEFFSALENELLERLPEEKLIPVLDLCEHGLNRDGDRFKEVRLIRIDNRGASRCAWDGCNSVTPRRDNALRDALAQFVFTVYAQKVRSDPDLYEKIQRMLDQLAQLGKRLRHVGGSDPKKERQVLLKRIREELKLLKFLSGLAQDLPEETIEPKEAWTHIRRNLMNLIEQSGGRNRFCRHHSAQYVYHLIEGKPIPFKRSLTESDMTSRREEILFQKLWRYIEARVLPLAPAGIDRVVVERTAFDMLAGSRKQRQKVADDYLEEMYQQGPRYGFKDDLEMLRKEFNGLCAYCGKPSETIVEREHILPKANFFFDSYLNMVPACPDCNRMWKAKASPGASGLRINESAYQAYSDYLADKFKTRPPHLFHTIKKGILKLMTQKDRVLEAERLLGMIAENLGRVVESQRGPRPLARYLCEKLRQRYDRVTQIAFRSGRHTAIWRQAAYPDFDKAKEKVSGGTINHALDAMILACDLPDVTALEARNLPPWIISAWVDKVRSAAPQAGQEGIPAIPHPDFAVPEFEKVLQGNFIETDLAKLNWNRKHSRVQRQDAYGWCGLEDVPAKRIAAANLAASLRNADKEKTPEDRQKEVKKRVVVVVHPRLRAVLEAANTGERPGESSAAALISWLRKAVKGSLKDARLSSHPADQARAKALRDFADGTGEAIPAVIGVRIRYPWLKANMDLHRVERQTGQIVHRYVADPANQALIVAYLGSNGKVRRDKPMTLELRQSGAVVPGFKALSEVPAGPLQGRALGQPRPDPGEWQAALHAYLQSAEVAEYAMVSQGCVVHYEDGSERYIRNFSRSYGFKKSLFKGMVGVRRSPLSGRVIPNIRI
Nature of the series: cell_activity; HEK293T; PAM AAA. The settings on record: tags: N-term SV40 NLS, XTEN linker + C-term nucleoplasmin NLS. The method, then:
Approximately 16 hours prior to transfection, 25,000 HEK293T cells in DMEM/10% FBS+Pen/Strep (D10 media) were plated into each well of a 96-well plate. On the day of transfection, the cells were 50-90% confluent. For each well to be transfected, a mixture of Lipofectamine 2000™ (ThermoFisher Scientific) and Opti-MEM™ (ThermoFisher Scientific) was prepared and incubated at room temperature for 5 minutes (Solution 1). After incubation, the Lipofectamine 2000™:Opti-MEM™ mixture was added to a separate mixture containing the CRISPR nuclease plasmid (NLS-tagged), RNA guide plasmid, and Opti-MEM™ (Solution 2). In the case of negative controls, the CRISPR nuclease plasmid was excluded. Solutions 1 and 2 were mixed by pipetting up and down, then incubated at room temperature for 25 minutes. Following incubation, the Solution 1 and 2 mixture was added dropwise to each well of a 96-well plate containing the cells. […]
Each Nuclease W variant was cloned as described in Example 2. […] For each target, indel ratios, referring to the percentage of NGS reads comprising indels, were calculated for the reference Nuclease W (SEQ ID NO: 1) and for each Nuclease W variant. The indel ratios shown in Table 5 were calculated as the average of two bioreplicates, each of which contained two technical replicates.

B1: S AAVS1-T7 RNA guide ; AAVS1-T7 target (S) (ssRNA ; dsDNA)
RNA: GGCUAUAAUCCAUGCUGACCGUUGUAUUCGGAUGGGAGUAAAAGGUUGAGUACACCUGGAAACAAAACGACAUAAAGGUGUUCUCCCAUCUGUGUACAAAGAGCAGAUAUAUGAGUUGAUAAGUAAUAUGUUGCACGUAUGGACUUUGACAGUCUGUACCUCUGCGUGAAAGACAUAUUGCGUUAUUCAUAUAUCUGUGAGUCUGUUCUAAAUUUAAAGGUUUAGGGAA
DNA 1: GGCTATAATCCATGCTGACC
DNA 2: GGTCAGCATGGATTATAGCC
For the molecule B1, the activity with Nuclease S turned out to be 0.0048 indel ratio.

B2: W EMX1-T5 RNA guide ; EMX1-T5 target (W) (ssRNA ; dsDNA)
RNA: UAAACUACAGUGGUGCCUGGGUUUCAGCUACCCUGAGUUUCUCAACUCCGUUGAGACUUCCUCAGGUUCAAGCUGAAAAGAGCAUCUGUCCGGAAGGACCACUCCGGGUUAGGGCAGACCCGGCUCUUGGGCUUCCUUGGUCUUUGACUCUGGAGGAAACCUUCCGGCGUGUCGCAAGACAAGAUGUGAGCCUG
DNA 1: TAAACTACAGTGGTGCCTGG
DNA 2: CCAGGCACCACTGTAGTTTA
Turning to B2, in series [1], the binding signal was 4.84 fold indel vs reference.
